Values quoted from earlier work in PMC4792251.
Read-outs that look alike come from different tables or passages of the source.

Key:
Mcl-1 (Homo sapiens) [1] = molecular target: Mcl-1 (Homo sapiens) (UniProt Q07820)
[2] = molecular target: BHRF1 (Epstein-Barr virus) (UniProt P03182)
Mcl-1 (Homo sapiens) [3] = molecular target: Mcl-1 (Homo sapiens) (UniProt Q07820); remark: listed apart in the source

Sequence of UniProt Q07820 (Q07820 whole entry): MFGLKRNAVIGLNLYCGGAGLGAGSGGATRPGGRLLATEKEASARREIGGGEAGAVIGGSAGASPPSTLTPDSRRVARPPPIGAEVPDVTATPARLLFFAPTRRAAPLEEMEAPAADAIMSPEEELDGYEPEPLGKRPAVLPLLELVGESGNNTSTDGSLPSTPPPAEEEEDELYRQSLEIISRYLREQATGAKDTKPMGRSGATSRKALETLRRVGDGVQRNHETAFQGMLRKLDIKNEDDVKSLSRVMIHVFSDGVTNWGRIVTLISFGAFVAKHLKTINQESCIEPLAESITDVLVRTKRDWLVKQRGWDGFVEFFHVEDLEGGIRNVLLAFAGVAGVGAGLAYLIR
Sequence of Bid BH3 peptide (P55957 80-99): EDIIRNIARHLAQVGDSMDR
Sequence of UniProt P03182 (P03182 whole entry): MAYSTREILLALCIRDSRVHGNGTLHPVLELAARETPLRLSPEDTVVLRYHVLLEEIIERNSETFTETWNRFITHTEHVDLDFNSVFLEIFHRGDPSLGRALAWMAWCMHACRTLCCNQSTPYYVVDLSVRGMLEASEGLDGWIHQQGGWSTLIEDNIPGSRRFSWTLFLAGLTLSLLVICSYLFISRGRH
Sequence of Noxa B BH3 peptide (Q9JM54 68-87): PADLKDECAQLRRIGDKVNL

Row | Kd (Mcl-1 (Homo sapiens) [3]) [nM] | Substance | Kd (Mcl-1 (Homo sapiens) [1]) [nM] | Kd [2] [nM]
1 |  | Bid BH3 peptide | < 10 | 99
2 | 28 | Noxa B BH3 peptide |  | 
